Measured values published in patent publication CN115969997A.

Biological target: CLDN18.2 (亲和力检测, Table 2 ka/kd/KD)
Assay: affinity measurement, method not described

A Kd of 2.89 nM was found for IMAB362 (antibody) in this work.
